Assay results taken from the supplement of paper PMC9112550, “Optimization of the antimicrobial peptide Bac7 by deep mutational scanning” (BMC Biology, 2022).

What follows are sequences tested on Escherichia coli TOP10 (assay: shrunken log2 fold change of peptide-encoding DNA abundance (4.5 h post-induction vs induction); higher = less antimicrobial activity (less host growth inhibition)). Conditions: time post-induction: 4.5 h; library: site-saturation at positions 5, 18, 19, 20.
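Also: peptides expressed intracellularly from a pBAD plasmid library in pooled LB shake-flask culture, induced with 0.3% L-arabinose, DNA abundance read by NGS, three biological replicates, DESeq2 with apeglm shrinkage.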

| Sequence | shrunken log2 fold change |
| --- | --- |
| RRIRERPPRLPRPRPRPAHDPRP | -0.181 |
| RRIRCRPPRLPRPRPRPRVTPRP | 0.23 |
| RRIRHRPPRLPRPRPRPKEAPRP | 0.00884 |
| RRIRARPPRLPRPRPRPMPSPRP | 0.341 |
| RRIRMRPPRLPRPRPRPMFRPRP | -0.0348 |
| RRIRHRPPRLPRPRPRPKNHPRP | -0.566 |
| RRIRIRPPRLPRPRPRPVMNPRP | -0.61 |
| RRIRDRPPRLPRPRPRPMLCPRP | -0.00642 |
| RRIRMRPPRLPRPRPRPKVRPRP | 0.00262 |
| RRIRIRPPRLPRPRPRPRYSPRP | -0.484 |
| RRIRTRPPRLPRPRPRPHQRPRP | -0.0533 |
| RRIRERPPRLPRPRPRPVAVPRP | -0.0937 |
| RRIRVRPPRLPRPRPRPTCNPRP | -0.233 |
| RRIRQRPPRLPRPRPRPNQCPRP | 0.0304 |
| RRIRMRPPRLPRPRPRPYRMPRP | -0.219 |
| RRIRHRPPRLPRPRPRPHRPPRP | -0.133 |
| RRIRDRPPRLPRPRPRPGVLPRP | -0.0992 |
| RRIRYRPPRLPRPRPRPHVPPRP | -0.277 |
| RRIRKRPPRLPRPRPRPNLRPRP | 0.211 |
| RRIRGRPPRLPRPRPRPYYKPRP | -0.607 |
| RRIRSRPPRLPRPRPRPIDSPRP | -0.0241 |
| RRIRQRPPRLPRPRPRPIDNPRP | -0.36 |
| RRIRWRPPRLPRPRPRPAVFPRP | 0.354 |

| Sequence | shrunken log2 fold change |
| --- | --- |
| RRIRVRPPRLPRPRPRPMIVPRP | 0.109 |
| RRIRGRPPRLPRPRPRPYRQPRP | -0.401 |
| RRIRMRPPRLPRPRPRPYWFPRP | -0.131 |
| RRIRGRPPRLPRPRPRPLWVPRP | 0.472 |
| RRIRARPPRLPRPRPRPDTPPRP | 0.331 |
| RRIRYRPPRLPRPRPRPGYGPRP | -0.541 |
| RRIRGRPPRLPRPRPRPRICPRP | 0.335 |
| RRIRWRPPRLPRPRPRPEPYPRP | 0.0876 |
| RRIRGRPPRLPRPRPRPIRPPRP | 0.209 |
| RRIRGRPPRLPRPRPRPDEEPRP | 1.76 |
| RRIRFRPPRLPRPRPRPHEAPRP | -0.377 |
| RRIRMRPPRLPRPRPRPCPSPRP | 0.0607 |
| RRIRTRPPRLPRPRPRPLVAPRP | 0.106 |
| RRIRPRPPRLPRPRPRPANKPRP | -0.267 |
| RRIRDRPPRLPRPRPRPAEFPRP | 0.149 |
| RRIRYRPPRLPRPRPRPHNKPRP | -0.718 |
| RRIRNRPPRLPRPRPRPWMQPRP | -0.218 |
| RRIRHRPPRLPRPRPRPASQPRP | 0.045 |
| RRIRQRPPRLPRPRPRPHLYPRP | -0.129 |
| RRIRHRPPRLPRPRPRPRDEPRP | -0.0872 |
| RRIRYRPPRLPRPRPRPHHQPRP | -1.06 |
| RRIRIRPPRLPRPRPRPHGTPRP | -0.236 |
| RRIRPRPPRLPRPRPRPNQWPRP | 0.139 |

| Sequence | shrunken log2 fold change |
| --- | --- |
| RRIRARPPRLPRPRPRPQNGPRP | -0.106 |
| RRIRGRPPRLPRPRPRPERWPRP | 1.19 |
| RRIRNRPPRLPRPRPRPTFCPRP | -0.379 |
| RRIRLRPPRLPRPRPRPENCPRP | -0.0062 |
| RRIRARPPRLPRPRPRPKMRPRP | 1.64 |
| RRIRDRPPRLPRPRPRPAENPRP | 0.224 |
| RRIRVRPPRLPRPRPRPIFEPRP | 0.149 |
| RRIRERPPRLPRPRPRPEINPRP | -0.2 |
| RRIRSRPPRLPRPRPRPECHPRP | 0.411 |
| RRIRNRPPRLPRPRPRPLISPRP | 3.16 |
| RRIRKRPPRLPRPRPRPTAKPRP | 0.00802 |
| RRIRCRPPRLPRPRPRPAIRPRP | -0.0579 |
| RRIRNRPPRLPRPRPRPLELPRP | -0.0825 |
| RRIRYRPPRLPRPRPRPPMNPRP | -0.728 |
| RRIRKRPPRLPRPRPRPIDNPRP | 0.0107 |
| RRIRLRPPRLPRPRPRPDKMPRP | -0.121 |
| RRIRKRPPRLPRPRPRPAMWPRP | 0.241 |
| RRIRMRPPRLPRPRPRPITAPRP | 0.244 |
| RRIRRRPPRLPRPRPRPNHDPRP | 0.196 |
| RRIRCRPPRLPRPRPRPFTFPRP | -0.351 |
| RRIRPRPPRLPRPRPRPWIGPRP | -0.0305 |
| RRIRGRPPRLPRPRPRPFHNPRP | -0.388 |
| RRIRYRPPRLPRPRPRPATPPRP | 0.158 |

| Sequence | shrunken log2 fold change |
| --- | --- |
| RRIRDRPPRLPRPRPRPNSYPRP | 0.179 |
| RRIRYRPPRLPRPRPRPEYQPRP | -0.00141 |
| RRIRCRPPRLPRPRPRPCMMPRP | -0.914 |
| RRIRYRPPRLPRPRPRPNDLPRP | 0.018 |
| RRIRERPPRLPRPRPRPWVYPRP | -0.157 |
| RRIRGRPPRLPRPRPRPQAVPRP | 0.295 |
| RRIRHRPPRLPRPRPRPVLDPRP | -0.116 |
| RRIRMRPPRLPRPRPRPEYRPRP | -0.000921 |
| RRIRNRPPRLPRPRPRPVGAPRP | 0.0749 |
| RRIRTRPPRLPRPRPRPRISPRP | -0.106 |
| RRIRPRPPRLPRPRPRPFTNPRP | -0.286 |
| RRIRHRPPRLPRPRPRPVELPRP | 0.115 |
| RRIRTRPPRLPRPRPRPFKFPRP | -0.0637 |
| RRIRARPPRLPRPRPRPMYYPRP | -0.433 |
| RRIRMRPPRLPRPRPRPDWSPRP | -0.0229 |
| RRIRGRPPRLPRPRPRPEAQPRP | 1.61 |
| RRIRNRPPRLPRPRPRPCAYPRP | -0.139 |
| RRIRVRPPRLPRPRPRPVILPRP | -0.248 |
| RRIRFRPPRLPRPRPRPAKKPRP | 0.188 |
| RRIRYRPPRLPRPRPRPTYMPRP | -1 |
| RRIRNRPPRLPRPRPRPMQIPRP | 0.0592 |
| RRIRTRPPRLPRPRPRPCSYPRP | -0.129 |
